In patent publication US20200102387A1 (CELGENE, published 2020):

B1: SIRPAB-11-AAS (antibody, human IgG1, kappa, L234A L235A)
light: DIQMTQSPSSVSASVGDRVTITCRASQGISSWLAWYQQKPGKAPKLLIYAASNLQSGVPSRFSGSGSGTDFTLTISSLQPEDFATYYCQQGASFPITFGGGTKVEIKRTVAAPSVFIFPPSDEQLKSGTASVVCLLNNFYPREAKVQWKVDNALQSGNSQESVTEQDSKDSTYSLSSTLTLSKADYEKHKVYACEVTHQGLSSPVTKSFNRGEC
heavy: QVQLVQSGAEVKKPGASVKVSCKASGYTFRGYGISWVRQAPGQGLEWMGWISAYGGETNYAQKLQGRVTMTTDTSTSTAYMELRSLRSDDTAVYYCAREAGSSWYDFDLWGRGTLVTVSSASTKGPSVFPLAPSSKSTSGGTAALGCLVKDYFPEPVTVSWNSGALTSGVHTFPAVLQSSGLYSLSSVVTVPSSSLGTQTYICNVNHKPSNTKVDKKVEPKSCDKTHTCPPCPAPEAAGGPSVFLFPPKPKDTLMISRTPEVTCVVVSVSHEDPEVKFNWYVDGVEVHNAKTKPREEQYNSTYRVVSVLTVLHQDWLNGKEYKCKVSNKALPAPIEKTISKAKGQPREPQVYTLPPSREEMTKNQVSLTCLVKGFYPSDIAVEWESNGQPENNYKTTPPVLDSDGSFFLYSKLTVDKSRWQQGNVFSCSVMHEALHNHYTQKSLSLSPGK
notes: also called SIRPAB-11-IgG1-AAS
B2: SIRPAB-9 (antibody, human IgG1, kappa, V domains shown)
VH: QVQLVQSGAEVKKPGASVKVSCKASGYTFGGYGISWVRQAPGQGLEWMGWISAYGGETNYAQKLQGRVTMTTDTSTSTAYMELRSLRSDDTAVYYCAREAGSSWYDFDLWGRGTLVTVSS
VL: DIQMTQSPSSVSASVGDRVTITCRASQGISSWLAWYQQKPGKAPKLLIYAASNLQSGVPSRFSGSGSGTDFTLTISSLQPEDFATYYCQQGASFPITFGGGTKVEIKR
B3: SIRPAB-10 (antibody, human IgG1, kappa, V domains shown)
VH: QVQLVQSGAEVKKPGASVKVSCKASGYTFTGYPISWVRQAPGQGLEWMGWIYAYGGNTNYAQKLQGRVTMTTDTSTSTAYMELRSLRSDDTAVYYCAREAGSSWYDFDLWGRGTLVTVSS
VL: DIQMTQSPSSVSASVGDRVTITCRASQGISSWLAWYQQKPGKAPKLLIYAASNLQSGVPSRFSGSGSGTDFTLTISSLQPEDFATYYCQQGASFPITFGGGTKVEIKR
B4: SIRPAB-11 (antibody, human IgG1, kappa)
light: DIQMTQSPSSVSASVGDRVTITCRASQGISSWLAWYQQKPGKAPKLLIYAASNLQSGVPSRFSGSGSGTDFTLTISSLQPEDFATYYCQQGASFPITFGGGTKVEIKRTVAAPSVFIFPPSDEQLKSGTASVVCLLNNFYPREAKVQWKVDNALQSGNSQESVTEQDSKDSTYSLSSTLTLSKADYEKHKVYACEVTHQGLSSPVTKSFNRGEC
heavy: not shown
notes: also called SIRPAB-11-IgG1; SIRPAB-11 IgG1 antibody
B5: SIRPAB-12 (antibody, human IgG1, kappa)
light: DIQMTQSPSSVSASVGDRVTITCRASQGISSWLAWYQQKPGKAPKLLIYAASNLQSGVPSRFSGSGSGTDFTLTISSLQPEDFATYYCQQGASFPITFGGGTKVEIKRTVAAPSVFIFPPSDEQLKSGTASVVCLLNNFYPREAKVQWKVDNALQSGNSQESVTEQDSKDSTYSLSSTLTLSKADYEKHKVYACEVTHQGLSSPVTKSFNRGEC
heavy: not shown

Key:
[1] = molecular target: T1, FcγR3A (CD16aV158) (human, UniProt P08637 17-254); assay: cell binding, FcγR-engineered HEK293 cells
T1 construct: whole, on cells
T1 sequence (P08637 17-254 F176V): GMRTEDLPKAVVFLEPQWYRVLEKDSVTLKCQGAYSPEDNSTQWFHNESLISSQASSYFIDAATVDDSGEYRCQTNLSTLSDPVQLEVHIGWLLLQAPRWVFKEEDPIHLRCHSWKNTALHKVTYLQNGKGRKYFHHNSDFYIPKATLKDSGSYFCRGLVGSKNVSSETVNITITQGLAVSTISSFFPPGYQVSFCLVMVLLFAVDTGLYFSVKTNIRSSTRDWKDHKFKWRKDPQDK

[2] = molecular target: T2, FcγR1 (CD64) (human, UniProt P12314 16-374); assay: cell binding, FcγR-engineered HEK293 cells
T2 construct: whole, on cells
T2 sequence (P12314 16-374): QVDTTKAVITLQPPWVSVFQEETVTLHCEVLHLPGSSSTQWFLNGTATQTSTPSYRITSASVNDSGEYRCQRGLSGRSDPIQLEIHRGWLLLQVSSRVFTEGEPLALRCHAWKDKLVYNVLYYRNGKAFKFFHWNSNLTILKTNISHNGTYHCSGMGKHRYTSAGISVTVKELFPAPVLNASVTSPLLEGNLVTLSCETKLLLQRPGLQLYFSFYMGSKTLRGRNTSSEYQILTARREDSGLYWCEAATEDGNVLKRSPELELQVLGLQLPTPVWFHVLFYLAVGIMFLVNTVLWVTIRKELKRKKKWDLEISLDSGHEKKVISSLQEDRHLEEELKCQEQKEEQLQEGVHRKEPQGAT

[3] = molecular target: T3, cyno SIRPα-Fc (cynomolgus); assay: BLI Octet, antigen-Fc on biosensor;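 note: antigen captured on the biosensor tip and then immersed in solutions of the test antibodies, which act as the analyte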
T3 construct: a signal peptide may be part of the entry

[4] = molecular target: T4, human SIRPα v1-Fc (SIRPα1 extracellular domain fused to human IGHG1_Fc) (human, UniProt P78324 31-373; P0DOX5 223-449 = IgG part); assay: BLI Octet, antigen-Fc on biosensor;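 note: antigen captured on the biosensor tip and then immersed in solutions of the test antibodies, which act as the analyte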
T4 construct: also called V1 (e.g. SIRPα1); SIRPα V1: DLN

[5] = molecular target: T5, human SIRPα v2-Fc (SIRPα2 extracellular domain fused to human IGHG1_Fc) (human, UniProt P78324 31-373; P0DOX5 223-449 = IgG part); assay: BLI Octet, antigen-Fc on biosensor;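 note: antigen captured on the biosensor tip and then immersed in solutions of the test antibodies, which act as the analyte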
T5 construct: as m38; also called V2 (e.g. SIRPα2); SIRPα V2:ESE

[6] = molecular target: T6, human SIRPα v5-Fc (SIRPα5 extracellular domain fused to human IGHG1_Fc) (human, UniProt P78324 31-373; P0DOX5 223-449 = IgG part); assay: BLI Octet, antigen-Fc on biosensor;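 note: antigen captured on the biosensor tip and then immersed in solutions of the test antibodies, which act as the analyte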
T6 construct: as m38; also called V5 (e.g. SIRPα5)

[7] = molecular target: T7, human SIRPγ-Fc (human); assay: BLI Octet, antigen-Fc on biosensor
T7 construct: a signal peptide may be part of the entry

[8] = molecular target: T8, human SIRPα v3-Fc (SIRPα3 extracellular domain fused to human IGHG1_Fc) (human, UniProt P78324 31-373; P0DOX5 223-449 = IgG part); assay: BLI Octet, antigen-Fc on biosensor
T8 construct: as m38; also called V3 (e.g. SIRPα3)

[9] = molecular target: T9, human SIRPα v6-Fc (SIRPα6 extracellular domain fused to human IGHG1_Fc) (human, UniProt P78324 31-373; P0DOX5 223-449 = IgG part); assay: BLI Octet, antigen-Fc on biosensor
T9 construct: as m38; also called V6 (e.g. SIRPα6)

[10] = molecular target: T10, human SIRPβ-Fc (human); assay: BLI Octet, antigen-Fc on biosensor
T10 construct: a signal peptide may be part of the entry

[11] = molecular target: T11, human SIRPα v4-Fc (SIRPα4 extracellular domain fused to human IGHG1_Fc) (human, UniProt P78324 31-373; P0DOX5 223-449 = IgG part); assay: BLI Octet, antigen-Fc on biosensor
T11 construct: as m38; also called V4 (e.g. SIRPα4)

[12] = molecular target: T12, mouse SIRPα-Fc (mouse); assay: BLI Octet, antigen-Fc on biosensor
T12 construct: a signal peptide may be part of the entry; also called Ms; Ms SIRPα-Fc

[13] = molecular target: T13, human SIRPα on cells (human, UniProt P78324 31-504); assay: cell binding, Hu SIRPα-CHO-K1 cells, 100 nM antibody
T13 construct: whole, on cells; also called human SIRPα-CHO; Hu SIRPα-CHO-K1

[14] = molecular target: T14, cynomolgus SIRPα on cells (cynomolgus, UniProt P78324 31-373 (human entry)); assay: cell binding, Cyno SIRPα-CHO-K1 cells, 100 nM antibody
T14 construct: also called cyno SIRPα-CHO; Cyno SIRPα-CHO-K1; not shown: Transmembrane and cytoplasmic region of cynomolgus SIRPα
T14 chain: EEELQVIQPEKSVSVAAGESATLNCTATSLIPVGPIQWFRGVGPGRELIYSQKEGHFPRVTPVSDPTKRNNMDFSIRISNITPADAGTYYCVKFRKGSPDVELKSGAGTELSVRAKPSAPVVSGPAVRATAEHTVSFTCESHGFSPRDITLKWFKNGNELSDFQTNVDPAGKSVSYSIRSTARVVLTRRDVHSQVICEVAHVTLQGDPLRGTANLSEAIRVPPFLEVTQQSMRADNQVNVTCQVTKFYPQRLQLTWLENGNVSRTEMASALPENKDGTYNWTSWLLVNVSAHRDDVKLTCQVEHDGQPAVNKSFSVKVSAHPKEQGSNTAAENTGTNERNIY

[15] = molecular target: T15, mouse SIRPα on cells (mouse, UniProt P97797 32-513); assay: flow cytometry of mouse CD11b positive cells, FL2-H anti-human PE; concentration not given
T15 construct: whole, on cells; also called mouse SIRPα-CHO-K1; Ms SIRPα-CHO-K1
T15 sequence (looked up): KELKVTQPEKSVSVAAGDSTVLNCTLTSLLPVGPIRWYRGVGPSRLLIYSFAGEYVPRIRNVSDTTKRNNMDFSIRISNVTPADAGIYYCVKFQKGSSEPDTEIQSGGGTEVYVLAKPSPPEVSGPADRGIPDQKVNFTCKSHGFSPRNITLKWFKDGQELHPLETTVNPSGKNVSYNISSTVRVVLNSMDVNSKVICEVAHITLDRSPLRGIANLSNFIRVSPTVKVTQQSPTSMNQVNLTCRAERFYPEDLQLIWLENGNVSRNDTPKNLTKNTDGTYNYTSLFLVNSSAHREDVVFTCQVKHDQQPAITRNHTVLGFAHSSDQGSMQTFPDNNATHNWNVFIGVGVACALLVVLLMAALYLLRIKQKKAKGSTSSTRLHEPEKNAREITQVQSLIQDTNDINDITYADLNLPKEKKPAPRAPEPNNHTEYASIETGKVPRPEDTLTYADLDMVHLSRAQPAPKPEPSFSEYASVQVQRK

Row | Kd [4] [nM] | koff [4] [s⁻¹] | kon [4] [M⁻¹ s⁻¹] | Kd [5] [nM] | koff [5] [s⁻¹] | kon [5] [M⁻¹ s⁻¹] | Kd [6] [nM] | koff [6] [s⁻¹] | kon [6] [M⁻¹ s⁻¹] | Kd [7] [nM] | koff [7] [s⁻¹] | kon [7] [M⁻¹ s⁻¹] | Kd [8] [nM] | koff [8] [s⁻¹] | kon [8] [M⁻¹ s⁻¹] | Kd [9] [nM] | koff [9] [s⁻¹] | kon [9] [M⁻¹ s⁻¹] | Kd [10] [nM] | koff [10] [s⁻¹] | other results | Binder
1 | – | – | – | – | – | – | – | – | – | – | – | – | – | – | – | – | – | – | – | – | EC50 [1]: 15100 nM; EC50 [2]: 3180 nM | B1
2 | 0.714 | 0.000757 | 1.06e+06 | 23 | 0.0185 | 810000 | 4.75 | 0.00462 | 970000 | 1.37 | 0.00161 | 1.17e+06 | 0.53 | 0.000515 | 980000 | 1.56 | 0.00182 | 1.17e+06 | 2.79 | 0.00284 | Kd [3]: 18.8 nM; koff [3]: 0.0212 s⁻¹; kon [3]: 1.13e+06 M⁻¹ s⁻¹; kon [10]: 1.02e+06 M⁻¹ s⁻¹; Kd [11]: 7.69 nM; koff [11]: 0.00777 s⁻¹; kon [11]: 1.01e+06 M⁻¹ s⁻¹; binding result [12]: no binding; fold increase over background (100 nM) [13]: 2650 fold; fold increase over background (100 nM) [14]: 2300 fold | B2
3 | 0.25 | 0.000345 | 1.4e+06 | 1.06 | 0.00132 | 1.25e+06 | 1.58 | 0.00178 | 1.13e+06 | 0.85 | 0.00123 | 1.45e+06 | 0.21 | 0.000261 | 1.24e+06 | 0.38 | 0.000491 | 1.28e+06 | 0.34 | 0.000477 | Kd [3]: 4.89 nM; koff [3]: 0.00683 s⁻¹; kon [3]: 1.4e+06 M⁻¹ s⁻¹; kon [10]: 1.4e+06 M⁻¹ s⁻¹; Kd [11]: 1.93 nM; koff [11]: 0.00267 s⁻¹; kon [11]: 1.38e+06 M⁻¹ s⁻¹; binding result [12]: no binding; fold increase over background (100 nM) [13]: 1170 fold; fold increase over background (100 nM) [14]: 1070 fold | B3
4 | 0.13 | 0.0002 | 1.49e+06 | 4.4 | 0.00559 | 1.27e+06 | 0.611 | 0.00106 | 1.73e+06 | 0.13 | 0.000205 | 1.57e+06 | 0.145 | 0.0002 | 1.38e+06 | 0.183 | 0.000356 | 1.94e+06 | 0.32 | 0.000473 | Kd [3]: 4.9 nM; koff [3]: 0.00869 s⁻¹; kon [3]: 1.77e+06 M⁻¹ s⁻¹; kon [10]: 1.49e+06 M⁻¹ s⁻¹; Kd [11]: 1.52 nM; koff [11]: 0.00228 s⁻¹; kon [11]: 1.5e+06 M⁻¹ s⁻¹; binding result [12]: no binding; binding result [15]: no binding; fold increase over background (100 nM) [13]: 1890 fold; fold increase over background (100 nM) [14]: 1950 fold | B4
5 | 0.81 | 0.00107 | 1.31e+06 | 15.4 | 0.0151 | 980000 | 4.87 | 0.00697 | 1.43e+06 | 1.49 | 0.00218 | 1.46e+06 | 0.53 | 0.000694 | 1.31e+06 | 1.58 | 0.00256 | 1.63e+06 | 3.35 | 0.00445 | kon [10]: 1.33e+06 M⁻¹ s⁻¹; Kd [11]: 8.13 nM; koff [11]: 0.0109 s⁻¹; kon [11]: 1.35e+06 M⁻¹ s⁻¹; binding result [12]: no binding; binding result [15]: no binding; fold increase over background (100 nM) [13]: 2350 fold; fold increase over background (100 nM) [14]: 2220 fold | B5
